Measured values from PMC8537613.

Biological target: NiV F clamp (Nipah virus (Malaysia strain)) (UniProt Q9IH63)
Assay: SEC

Substance “NiV F clamp (from UniProt Q9IH63 27-483)” has a stoichiometry N of 3.
